# Measurements reported in US20260001928A1 (CORTERIA PHARMACEUTICALS, priority 2022, published 2026).
# *1 amine or outer side, *2 acyl side, *3 side chain or, on linkers, in order; H or OH if unused. Where no end group is shown, it is not given here. Side-chain parts run from the residue outwards. [ ]: non-standard residue; d: D form. The star is where a group is joined. C18 diacid = O=C(O)CCCCCCCCCCCCCCCCC(=O)*; C16 diacid = O=C(O)CCCCCCCCCCCCCCC(=O)*; γGlu = O=C(O)[C@H](CCC(=O)[*:2])N[*:1]; NMeI = CC[C@H](C)[C@H](NC)C(=O)O; Api = NC1(C(=O)O)CCNCC1; Abu = CC[C@H](N)C(=O)O; AEEA = NCCOCCOCC(=O)O
# T1: CRF1R receptor (UniProt P34998 24-415, limits assumed)
# T1 sequence (looked up): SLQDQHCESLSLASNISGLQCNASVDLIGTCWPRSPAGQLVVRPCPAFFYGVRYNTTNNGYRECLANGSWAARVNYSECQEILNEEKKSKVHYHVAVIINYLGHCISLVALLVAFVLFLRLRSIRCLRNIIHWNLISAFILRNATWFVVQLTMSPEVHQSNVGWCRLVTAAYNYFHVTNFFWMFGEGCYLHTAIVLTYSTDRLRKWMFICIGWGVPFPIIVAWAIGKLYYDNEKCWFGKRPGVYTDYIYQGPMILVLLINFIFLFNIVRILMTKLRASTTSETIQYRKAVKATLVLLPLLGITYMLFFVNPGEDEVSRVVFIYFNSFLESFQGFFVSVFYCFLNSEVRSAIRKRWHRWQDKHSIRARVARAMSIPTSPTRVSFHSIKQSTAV
# B1: SEQ ID NO 127 (peptide)
# peptide: Ac-IVLSLD[dV]PIKLK([γGlu-C18 diacid])KILLEQEKQKKQREQAETN[Abu]QILAQV-NH2
# SMILES: CC[C@H](NC(=O)[C@H](CC(N)=O)NC(=O)[C@@H](NC(=O)[C@H](CCC(=O)O)NC(=O)[C@H](C)NC(=O)[C@H](CCC(N)=O)NC(=O)[C@H](CCC(=O)O)NC(=O)[C@H](CCCNC(=N)N)NC(=O)[C@H](CCC(N)=O)NC(=O)[C@H](CCCCN)NC(=O)[C@H](CCCCN)NC(=O)[C@H](CCC(N)=O)NC(=O)[C@H](CCCCN)NC(=O)[C@H](CCC(=O)O)NC(=O)[C@H](CCC(N)=O)NC(=O)[C@H](CCC(=O)O)NC(=O)[C@H](CC(C)C)NC(=O)[C@H](CC(C)C)NC(=O)[C@@H](NC(=O)[C@H](CCCCN)NC(=O)[C@H](CCCCNC(=O)CC[C@H](NC(=O)CCCCCCCCCCCCCCCCC(=O)O)C(=O)O)NC(=O)[C@H](CC(C)C)NC(=O)[C@H](CCCCN)NC(=O)[C@@H](NC(=O)[C@@H]1CCCN1C(=O)[C@H](NC(=O)[C@H](CC(=O)O)NC(=O)[C@H](CC(C)C)NC(=O)[C@H](CO)NC(=O)[C@H](CC(C)C)NC(=O)[C@@H](NC(=O)[C@@H](NC(C)=O)[C@@H](C)CC)C(C)C)C(C)C)[C@@H](C)CC)[C@@H](C)CC)[C@@H](C)O)C(=O)N[C@@H](CCC(N)=O)C(=O)N[C@H](C(=O)N[C@@H](CC(C)C)C(=O)N[C@@H](C)C(=O)N[C@@H](CCC(N)=O)C(=O)N[C@H](C(N)=O)C(C)C)[C@@H](C)CC
# B2: SEQ ID NO 129 (peptide)
# peptide: Ac-IVLSLD[dV]PIKLK([γGlu-C18 diacid])KILLEQEKQKKQREQAETN[Api]QILAQV-NH2
# SMILES: CC[C@H](C)[C@H](NC(C)=O)C(=O)N[C@H](C(=O)N[C@@H](CC(C)C)C(=O)N[C@@H](CO)C(=O)N[C@@H](CC(C)C)C(=O)N[C@@H](CC(=O)O)C(=O)N[C@@H](C(=O)N1CCC[C@H]1C(=O)N[C@H](C(=O)N[C@@H](CCCCN)C(=O)N[C@@H](CC(C)C)C(=O)N[C@@H](CCCCNC(=O)CC[C@H](NC(=O)CCCCCCCCCCCCCCCCC(=O)O)C(=O)O)C(=O)N[C@@H](CCCCN)C(=O)N[C@H](C(=O)N[C@@H](CC(C)C)C(=O)N[C@@H](CC(C)C)C(=O)N[C@@H](CCC(=O)O)C(=O)N[C@@H](CCC(N)=O)C(=O)N[C@@H](CCC(=O)O)C(=O)N[C@@H](CCCCN)C(=O)N[C@@H](CCC(N)=O)C(=O)N[C@@H](CCCCN)C(=O)N[C@@H](CCCCN)C(=O)N[C@@H](CCC(N)=O)C(=O)N[C@@H](CCCNC(=N)N)C(=O)N[C@@H](CCC(=O)O)C(=O)N[C@@H](CCC(N)=O)C(=O)N[C@@H](C)C(=O)N[C@@H](CCC(=O)O)C(=O)N[C@H](C(=O)N[C@@H](CC(N)=O)C(=O)NC1(C(=O)N[C@@H](CCC(N)=O)C(=O)N[C@H](C(=O)N[C@@H](CC(C)C)C(=O)N[C@@H](C)C(=O)N[C@@H](CCC(N)=O)C(=O)N[C@H](C(N)=O)C(C)C)[C@@H](C)CC)CCNCC1)[C@@H](C)O)[C@@H](C)CC)[C@@H](C)CC)C(C)C)C(C)C
# B3: SEQ ID NO 116 (peptide)
# peptide: [NMeI]VLSLD[dV]PIKLK([AEEA-AEEA-γGlu-C18 diacid])KILLEQEKQKKQREQAETNEQILAQV-NH2
# modifications: N-terminus assumed
# SMILES: CC[C@H](C)[C@H](NC)C(=O)N[C@H](C(=O)N[C@@H](CC(C)C)C(=O)N[C@@H](CO)C(=O)N[C@@H](CC(C)C)C(=O)N[C@@H](CC(=O)O)C(=O)N[C@@H](C(=O)N1CCC[C@H]1C(=O)N[C@H](C(=O)N[C@@H](CCCCN)C(=O)N[C@@H](CC(C)C)C(=O)N[C@@H](CCCCNC(=O)COCCOCCNC(=O)COCCOCCNC(=O)CC[C@H](NC(=O)CCCCCCCCCCCCCCCCC(=O)O)C(=O)O)C(=O)N[C@@H](CCCCN)C(=O)N[C@H](C(=O)N[C@@H](CC(C)C)C(=O)N[C@@H](CC(C)C)C(=O)N[C@@H](CCC(=O)O)C(=O)N[C@@H](CCC(N)=O)C(=O)N[C@@H](CCC(=O)O)C(=O)N[C@@H](CCCCN)C(=O)N[C@@H](CCC(N)=O)C(=O)N[C@@H](CCCCN)C(=O)N[C@@H](CCCCN)C(=O)N[C@@H](CCC(N)=O)C(=O)N[C@@H](CCCNC(=N)N)C(=O)N[C@@H](CCC(=O)O)C(=O)N[C@@H](CCC(N)=O)C(=O)N[C@@H](C)C(=O)N[C@@H](CCC(=O)O)C(=O)N[C@H](C(=O)N[C@@H](CC(N)=O)C(=O)N[C@@H](CCC(=O)O)C(=O)N[C@@H](CCC(N)=O)C(=O)N[C@H](C(=O)N[C@@H](CC(C)C)C(=O)N[C@@H](C)C(=O)N[C@@H](CCC(N)=O)C(=O)N[C@H](C(N)=O)C(C)C)[C@@H](C)CC)[C@@H](C)O)[C@@H](C)CC)[C@@H](C)CC)C(C)C)C(C)C
# B4: SEQ ID NO 71 (peptide)
# peptide: [NMeI]VLSLD[dV]PIKLK([γGlu-C16 diacid])KILLEQEKQKKQREQAETNEQILAQV-NH2
# modifications: N-terminus assumed
# SMILES: CC[C@H](C)[C@H](NC)C(=O)N[C@H](C(=O)N[C@@H](CC(C)C)C(=O)N[C@@H](CO)C(=O)N[C@@H](CC(C)C)C(=O)N[C@@H](CC(=O)O)C(=O)N[C@@H](C(=O)N1CCC[C@H]1C(=O)N[C@H](C(=O)N[C@@H](CCCCN)C(=O)N[C@@H](CC(C)C)C(=O)N[C@@H](CCCCNC(=O)CC[C@H](NC(=O)CCCCCCCCCCCCCCC(=O)O)C(=O)O)C(=O)N[C@@H](CCCCN)C(=O)N[C@H](C(=O)N[C@@H](CC(C)C)C(=O)N[C@@H](CC(C)C)C(=O)N[C@@H](CCC(=O)O)C(=O)N[C@@H](CCC(N)=O)C(=O)N[C@@H](CCC(=O)O)C(=O)N[C@@H](CCCCN)C(=O)N[C@@H](CCC(N)=O)C(=O)N[C@@H](CCCCN)C(=O)N[C@@H](CCCCN)C(=O)N[C@@H](CCC(N)=O)C(=O)N[C@@H](CCCNC(=N)N)C(=O)N[C@@H](CCC(=O)O)C(=O)N[C@@H](CCC(N)=O)C(=O)N[C@@H](C)C(=O)N[C@@H](CCC(=O)O)C(=O)N[C@H](C(=O)N[C@@H](CC(N)=O)C(=O)N[C@@H](CCC(=O)O)C(=O)N[C@@H](CCC(N)=O)C(=O)N[C@H](C(=O)N[C@@H](CC(C)C)C(=O)N[C@@H](C)C(=O)N[C@@H](CCC(N)=O)C(=O)N[C@H](C(N)=O)C(C)C)[C@@H](C)CC)[C@@H](C)O)[C@@H](C)CC)[C@@H](C)CC)C(C)C)C(C)C
# B5: SEQ ID NO 72 (peptide)
# peptide: [NMeI]VLSLD[dV]PIKLK([γGlu-C16 diacid])KILLEQEKQKKQREQAETN[Api]QILAQV-NH2
# modifications: N-terminus assumed
# SMILES: CC[C@H](C)[C@H](NC)C(=O)N[C@H](C(=O)N[C@@H](CC(C)C)C(=O)N[C@@H](CO)C(=O)N[C@@H](CC(C)C)C(=O)N[C@@H](CC(=O)O)C(=O)N[C@@H](C(=O)N1CCC[C@H]1C(=O)N[C@H](C(=O)N[C@@H](CCCCN)C(=O)N[C@@H](CC(C)C)C(=O)N[C@@H](CCCCNC(=O)CC[C@H](NC(=O)CCCCCCCCCCCCCCC(=O)O)C(=O)O)C(=O)N[C@@H](CCCCN)C(=O)N[C@H](C(=O)N[C@@H](CC(C)C)C(=O)N[C@@H](CC(C)C)C(=O)N[C@@H](CCC(=O)O)C(=O)N[C@@H](CCC(N)=O)C(=O)N[C@@H](CCC(=O)O)C(=O)N[C@@H](CCCCN)C(=O)N[C@@H](CCC(N)=O)C(=O)N[C@@H](CCCCN)C(=O)N[C@@H](CCCCN)C(=O)N[C@@H](CCC(N)=O)C(=O)N[C@@H](CCCNC(=N)N)C(=O)N[C@@H](CCC(=O)O)C(=O)N[C@@H](CCC(N)=O)C(=O)N[C@@H](C)C(=O)N[C@@H](CCC(=O)O)C(=O)N[C@H](C(=O)N[C@@H](CC(N)=O)C(=O)NC1(C(=O)N[C@@H](CCC(N)=O)C(=O)N[C@H](C(=O)N[C@@H](CC(C)C)C(=O)N[C@@H](C)C(=O)N[C@@H](CCC(N)=O)C(=O)N[C@H](C(N)=O)C(C)C)[C@@H](C)CC)CCNCC1)[C@@H](C)O)[C@@H](C)CC)[C@@H](C)CC)C(C)C)C(C)C
# B6: SEQ ID NO 126 (peptide)
# peptide: Ac-IVLSLD[dV]PIKLK([γGlu-C18 diacid])KILLEQEKQKKQREQAETNAQILAQV-NH2
# SMILES: CC[C@H](C)[C@H](NC(C)=O)C(=O)N[C@H](C(=O)N[C@@H](CC(C)C)C(=O)N[C@@H](CO)C(=O)N[C@@H](CC(C)C)C(=O)N[C@@H](CC(=O)O)C(=O)N[C@@H](C(=O)N1CCC[C@H]1C(=O)N[C@H](C(=O)N[C@@H](CCCCN)C(=O)N[C@@H](CC(C)C)C(=O)N[C@@H](CCCCNC(=O)CC[C@H](NC(=O)CCCCCCCCCCCCCCCCC(=O)O)C(=O)O)C(=O)N[C@@H](CCCCN)C(=O)N[C@H](C(=O)N[C@@H](CC(C)C)C(=O)N[C@@H](CC(C)C)C(=O)N[C@@H](CCC(=O)O)C(=O)N[C@@H](CCC(N)=O)C(=O)N[C@@H](CCC(=O)O)C(=O)N[C@@H](CCCCN)C(=O)N[C@@H](CCC(N)=O)C(=O)N[C@@H](CCCCN)C(=O)N[C@@H](CCCCN)C(=O)N[C@@H](CCC(N)=O)C(=O)N[C@@H](CCCNC(=N)N)C(=O)N[C@@H](CCC(=O)O)C(=O)N[C@@H](CCC(N)=O)C(=O)N[C@@H](C)C(=O)N[C@@H](CCC(=O)O)C(=O)N[C@H](C(=O)N[C@@H](CC(N)=O)C(=O)N[C@@H](C)C(=O)N[C@@H](CCC(N)=O)C(=O)N[C@H](C(=O)N[C@@H](CC(C)C)C(=O)N[C@@H](C)C(=O)N[C@@H](CCC(N)=O)C(=O)N[C@H](C(N)=O)C(C)C)[C@@H](C)CC)[C@@H](C)O)[C@@H](C)CC)[C@@H](C)CC)C(C)C)C(C)C
# Target: human corticotropin-releasing factor 2a (CRF2a receptor) (human), Q13324
# Sequence (Q13324 20-411): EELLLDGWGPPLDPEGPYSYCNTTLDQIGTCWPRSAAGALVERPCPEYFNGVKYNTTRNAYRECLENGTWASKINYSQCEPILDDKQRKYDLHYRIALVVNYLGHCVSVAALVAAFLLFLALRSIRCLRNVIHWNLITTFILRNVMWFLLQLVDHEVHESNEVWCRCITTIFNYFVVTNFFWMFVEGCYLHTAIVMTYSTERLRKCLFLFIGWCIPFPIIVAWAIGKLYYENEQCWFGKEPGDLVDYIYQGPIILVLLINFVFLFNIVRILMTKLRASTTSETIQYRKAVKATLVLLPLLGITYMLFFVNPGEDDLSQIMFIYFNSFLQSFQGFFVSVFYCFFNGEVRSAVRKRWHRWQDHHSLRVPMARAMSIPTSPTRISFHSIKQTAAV
# Assay: cell-based or functional assay
row,EC50 [nM] (cAMP),Binder
1,0.08,B1
2,0.14,B2
3,0.37,B3
4,0.21,B4
5,0.14,B5
6,0.05,B6

# Target: T1, CRF1R receptor
# Assay: cell-based or functional assay
Emax (% I) [%],EC50 [nM],Binder
11,–,B1
39,236,B2
0,–,B3
-4,–,B4
18,–,B5
20,–,B6
